From patent publication US20220265819A1 (GEN2 NEUROSCIENCE, published 2022)

What was measured:
[1] = molecular target: full length pHrodo-labelled monomeric (P301S) 2N4R tau (human, UniProt P10636 1-758, labelled with pHrodo Red Maleimide); assay: cell-based or functional assay
[2] = molecular target: full length pHrodo-labelled aggregated (P301S) 2N4R tau (human, UniProt P10636 1-758, labelled with pHrodo Red Maleimide); assay: cell-based or functional assay
[3] = molecular target: T1, full length recombinant human 2N4R tau (amino acids 1-441) (human, UniProt P10636 1-758); assay: SPR Biacore SCK, IgG on Protein A, tau analyte
T1 construct: Bought (rPeptide); recombinant, non-phosphorylated; also called recombinant tau
T1 sequence (P10636 other isoform, or with tags, fused parts or gaps limits assumed): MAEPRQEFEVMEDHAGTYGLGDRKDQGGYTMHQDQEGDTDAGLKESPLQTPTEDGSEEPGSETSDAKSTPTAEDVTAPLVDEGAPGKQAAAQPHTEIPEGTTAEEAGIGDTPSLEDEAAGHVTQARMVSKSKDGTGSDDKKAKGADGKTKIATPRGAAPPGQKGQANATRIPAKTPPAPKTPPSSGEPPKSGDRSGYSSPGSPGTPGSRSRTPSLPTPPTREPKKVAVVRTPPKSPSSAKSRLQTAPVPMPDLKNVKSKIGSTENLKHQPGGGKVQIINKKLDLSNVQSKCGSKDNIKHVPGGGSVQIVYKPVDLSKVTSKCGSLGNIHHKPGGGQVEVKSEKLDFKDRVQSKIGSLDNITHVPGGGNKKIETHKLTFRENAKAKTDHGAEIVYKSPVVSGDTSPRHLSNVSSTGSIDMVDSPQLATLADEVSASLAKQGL
Method: (§1) 23.5 Assessment of antibody binding to tau (Biacore SCK analysis): Binding of anti-tau hIgG1 to full length recombinant 2N4R tau (Rpeptide; SEQ ID NO: 2) was assessed using the Biacore T200 (GE Healthcare, Chicago, Ill., USA) running Biacore T200 Evaluation Software V2.0.1. hIgG1 were immobilised on a Protein A capture sensor chip in running buffer (HBS-EP+ buffer containing 1 mg/mL BSA) at 25° C. captured to ˜50 RU at 10 μL/min. For single-cycle kinetics experiments, recombinant 2N4R tau was flowed at concentrations ranging from 5 nM to 40 nM (2-fold dilutions) with an association time of 150 s and a dissociation time of 200 s. Curves were compared to a reference cell that was mock immobilized (no antibody present).
Data were analysed using Langmuir (1:1) binding analysis, describing a 1:1 interaction at the surface: […]

[4] = molecular target: T1, full length recombinant human 2N4R tau …; assay: SPR Biacore MCK, purified IgG on Protein A, tau analyte
Method: Biacore multi-cycle kinetics (MCK) analyses for antibody binding to recombinant (non-phosphorylated) 2N4R tau are summarised in FIG. 23 and Table 8. […] Slight variations in RMAX are considered likely to be due to differences in ligand capture and not reflective of significant variation in antibody binding characteristics.
as §1, with “24.2” for “23.5”, “MCK” for “SCK”, “For single-cycle kinetics experiments, recombinant 2N4R tau was flowed at concentrations ranging from 5 nM to 40 nM (2-fold dilutions) with an association time of 150 s and a dissociation time of 200 s.” left out

Bovine serum albumin = molecular target: T2, Bovine serum albumin (bovine, UniProt P02769 25-607); assay: ELISA on 1% BSA, HEK supernatant, anti-human IgG-HRP, n=1
T2 construct: Negative control antigen in ELISA; also called BSA
T2 sequence (P02769 25-607 limits assumed): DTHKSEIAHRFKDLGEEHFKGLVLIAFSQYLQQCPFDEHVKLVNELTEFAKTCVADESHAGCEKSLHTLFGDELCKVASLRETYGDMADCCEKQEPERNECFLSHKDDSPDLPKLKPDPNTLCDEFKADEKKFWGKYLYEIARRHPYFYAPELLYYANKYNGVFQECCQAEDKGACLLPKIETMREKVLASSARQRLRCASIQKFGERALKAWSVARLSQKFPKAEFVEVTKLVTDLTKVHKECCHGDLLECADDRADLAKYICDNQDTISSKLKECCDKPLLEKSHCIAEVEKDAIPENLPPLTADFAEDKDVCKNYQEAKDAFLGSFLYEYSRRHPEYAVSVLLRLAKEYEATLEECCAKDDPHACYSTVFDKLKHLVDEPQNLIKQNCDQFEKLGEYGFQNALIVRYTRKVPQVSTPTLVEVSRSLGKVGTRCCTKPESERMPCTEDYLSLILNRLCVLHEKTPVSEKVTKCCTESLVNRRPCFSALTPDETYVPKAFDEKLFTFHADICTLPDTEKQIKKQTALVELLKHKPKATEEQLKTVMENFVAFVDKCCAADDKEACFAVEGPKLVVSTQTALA
Method: Antigen was removed from wells and the plates were then blocked for 1 hour at RT with 5% dried milk in 1×TBS. Blocking solution was removed, HEK293 cell supernatant (1:100 in 1% BSA/1×TBS) was added to relevant wells, and plates were incubated for 1 hour at RT with gentle shaking. Plates were then washed four times with TBS/0.1% Tween (TBST). Goat-anti-human IgG-HRP antibody (ThermoFisher Scientific, Waltham, Mass. USA), diluted 1:2000 in 5% milk/TBS, was added to each well and plates were incubated for 1 hour at RT with gentle shaking before being washed four times with TBST. 3,3′,5,5′-tetramethylbenzidine (TMB) ELISA solution was added to each well and plates were incubated for 15 mins at RT. An equal volume of 1 M sulfuric acid was added to each well and OD was measured at 450 nm.

Chain of full length pHrodo-labelled aggregated (P301S) 2N4R tau (P10636 other isoform, or with tags, fused parts or gaps P301S P301S): as the sequence (P10636 other isoform, or with tags, fused parts or gaps limits assumed) above, with P301S counted along it
Chain of full length pHrodo-labelled monomeric (P301S) 2N4R tau (P10636 other isoform, or with tags, fused parts or gaps P301S P301S): as the sequence (P10636 other isoform, or with tags, fused parts or gaps limits assumed) above, with P301S counted along it

| Binder | inhibition of uptake of monomeric tau into human iPSC-derived astrocytes [1] | inhibition of uptake of monomeric tau into human iPSC-derived neurons [1] | increase of uptake of aggregated tau into human iPSC-derived microglia [2] | inhibition of uptake of aggregated tau into human iPSC-derived astrocytes [2] | inhibition of uptake of aggregated tau into human iPSC-derived neurons [2] | Kd [3] | Relative KD [3] | koff [3] | kon [3] | Kd [4] | Relative KD [4] | koff [4] | kon [4] | binding result (Bovine serum albumin) |
| --- | --- | --- | --- | --- | --- | --- | --- | --- | --- | --- | --- | --- | --- | --- |
| Clone 31 (VH5Vκ2), humanised variant of clone #28, human IgG1 (antibody, V domains shown, also called VH5VK2; VH5Vk2) VH: QVQLQESGPGLVKPSETLSLTCTVSGFSLNNYDMSWVRQAPGKGLEWIGTVSTTYRRYYASWAKGRFTISRDNSKNTLDLQMTSLTAEDTATYFCAASGIWGRGTLVTVSS VL: AQVLTQSPSTLSASVGDRVTITCQSSQRVYSNYLAWYQQKPGQPPKRLIFLASTLESGVPSRFSGSGSGTEFTLTISSLQPDDFATYYCAGTYTGSIWAFGGGTKVEIK | 26.7 % inhibition | 57.3 % inhibition | 133 % increase | 27.8 % inhibition | 57.2 % inhibition | 96.5 nM | 2.13 fold vs VH0VK0 | 0.00362 s⁻¹ | 37500 M⁻¹ s⁻¹ | 34.8 nM | 1.4 fold vs VH0VK0 | 0.00321 s⁻¹ | 92400 M⁻¹ s⁻¹ | no binding (tested: supernatant 1:100) |
| Clone 16 (VH1Vκ4), humanised variant of clone #28, human IgG1 (antibody, V domains shown, also called VH1VK4) VH: QSLQESGGGLVKPSETLSLTCTVSGFSLNNYDMSWVRQAPGKGLEWIGTVSTTYRRYYASWAKGRFTISKTSSTTVDLKMTSLTAEDTATYFCAASGIWGRGTLVTVSS VL: DIQMTQSPSTLSASVGDRVTITCQSSQRVYSNYLAWYQQKPGQPPKRLIFLASTLESGVPSRFSGSGSGTEFTLTISSLQPDDFATYYCAGTYTGSIWAFGGGTKVEIK |  |  |  |  |  | 31.2 nM | 0.69 fold vs VH0VK0 | 0.00207 s⁻¹ | 66300 M⁻¹ s⁻¹ |  |  |  |  | no binding (tested: supernatant 1:100) |
| Clone 17 (VH1Vκ5), humanised variant of clone #28, human IgG1 (antibody, V domains shown, also called VH1VK5) VH: QSLQESGGGLVKPSETLSLTCTVSGFSLNNYDMSWVRQAPGKGLEWIGTVSTTYRRYYASWAKGRFTISKTSSTTVDLKMTSLTAEDTATYFCAASGIWGRGTLVTVSS VL: DIQMTQSPSTLSASVGDRVTITCQSSQRVSSSYLAWYQQKPGQPPKRLIFLASTLESGVPSRFSGSGSGTEFTLTISSLQPDDFATYYCAGTYTGSIWAFGGGTKVEIK |  |  |  |  |  | 41.1 nM | 0.91 fold vs VH0VK0 | 0.00428 s⁻¹ | 104000 M⁻¹ s⁻¹ |  |  |  |  | no binding (tested: supernatant 1:100) |
| Clone 20 (VH2Vκ4), humanised variant of clone #28, human IgG1 (antibody, V domains shown, also called VH2VK4) VH: QSLQESGPGLVKPSETLSLTCTVSGFSLNNYDMSWVRQAPGKGLEWIGTVSTTYRRYYASWAKGRFTISKTSSTTVDLQMTSLTAEDTATYFCAASGIWGRGTLVTVSS VL: DIQMTQSPSTLSASVGDRVTITCQSSQRVYSNYLAWYQQKPGQPPKRLIFLASTLESGVPSRFSGSGSGTEFTLTISSLQPDDFATYYCAGTYTGSIWAFGGGTKVEIK |  |  |  |  |  | 38 nM | 0.84 fold vs VH0VK0 | 0.00234 s⁻¹ | 61500 M⁻¹ s⁻¹ |  |  |  |  | no binding (tested: supernatant 1:100) |
| Clone 19 (VH2Vκ2), humanised variant of clone #28, human IgG1 (antibody, V domains shown, also called VH2VK2) VH: QSLQESGPGLVKPSETLSLTCTVSGFSLNNYDMSWVRQAPGKGLEWIGTVSTTYRRYYASWAKGRFTISKTSSTTVDLQMTSLTAEDTATYFCAASGIWGRGTLVTVSS VL: AQVLTQSPSTLSASVGDRVTITCQSSQRVYSNYLAWYQQKPGQPPKRLIFLASTLESGVPSRFSGSGSGTEFTLTISSLQPDDFATYYCAGTYTGSIWAFGGGTKVEIK |  |  |  |  |  | 67.3 nM | 1.49 fold vs VH0VK0 | 0.00324 s⁻¹ | 48100 M⁻¹ s⁻¹ |  |  |  |  | no binding (tested: supernatant 1:100) |
| Clone 28 (VH4Vκ4), humanised variant of clone #28, human IgG1 (antibody, V domains shown, also called VH4VK4; VH4Vk4) VH: QVQLQESGPGLVKPSETLSLTCTVSGFSLNNYDMSWVRQAPGKGLEWIGTVSTTYRRYYASWAKGRFTISKDTSSTTVDLQMTSLTAEDTATYFCAASGIWGRGTLVTVSS VL: DIQMTQSPSTLSASVGDRVTITCQSSQRVYSNYLAWYQQKPGQPPKRLIFLASTLESGVPSRFSGSGSGTEFTLTISSLQPDDFATYYCAGTYTGSIWAFGGGTKVEIK | 42 % inhibition | 61.5 % inhibition | 246 % increase | 29.1 % inhibition | 58.7 % inhibition | 49 nM | 1.08 fold vs VH0VK0 | 0.00234 s⁻¹ | 47700 M⁻¹ s⁻¹ | 26.9 nM | 1.08 fold vs VH0VK0 | 0.00186 s⁻¹ | 69200 M⁻¹ s⁻¹ | no binding (tested: supernatant 1:100) |
| Clone 14 (VH1Vκ1), humanised variant of clone #28, human IgG1 (antibody, V domains shown, also called VH1VK1) VH: QSLQESGGGLVKPSETLSLTCTVSGFSLNNYDMSWVRQAPGKGLEWIGTVSTTYRRYYASWAKGRFTISKTSSTTVDLKMTSLTAEDTATYFCAASGIWGRGTLVTVSS VL: AQVLTQSTSPLSASVGDRVTITCQSSQRVYSNYLAWYQQKPGQPPKRLIFLASTLESGVPSRFSGSGSGTEFTLTISSLQCDDFATYYCAGTYTGSIWAFGGGTEVVIK |  |  |  |  |  | 36.6 nM | 0.81 fold vs VH0VK0 | 0.00308 s⁻¹ | 84000 M⁻¹ s⁻¹ |  |  |  |  | no binding (tested: supernatant 1:100) |
| Clone 18 (VH2Vκ1), humanised variant of clone #28, human IgG1 (antibody, V domains shown, also called VH2VK1) VH: QSLQESGPGLVKPSETLSLTCTVSGFSLNNYDMSWVRQAPGKGLEWIGTVSTTYRRYYASWAKGRFTISKTSSTTVDLQMTSLTAEDTATYFCAASGIWGRGTLVTVSS VL: AQVLTQSTSPLSASVGDRVTITCQSSQRVYSNYLAWYQQKPGQPPKRLIFLASTLESGVPSRFSGSGSGTEFTLTISSLQCDDFATYYCAGTYTGSIWAFGGGTEVVIK |  |  |  |  |  | 49.2 nM | 1.09 fold vs VH0VK0 | 0.0033 s⁻¹ | 67100 M⁻¹ s⁻¹ |  |  |  |  | no binding (tested: supernatant 1:100) |
| Clone 27 (VH4Vκ2), humanised variant of clone #28, human IgG1 (antibody, V domains shown, also called VH4VK2; VH4Vk2) VH: QVQLQESGPGLVKPSETLSLTCTVSGFSLNNYDMSWVRQAPGKGLEWIGTVSTTYRRYYASWAKGRFTISKDTSSTTVDLQMTSLTAEDTATYFCAASGIWGRGTLVTVSS VL: AQVLTQSPSTLSASVGDRVTITCQSSQRVYSNYLAWYQQKPGQPPKRLIFLASTLESGVPSRFSGSGSGTEFTLTISSLQPDDFATYYCAGTYTGSIWAFGGGTKVEIK |  | 66.5 % inhibition | 179 % increase |  | 58.7 % inhibition | 68.6 nM | 1.51 fold vs VH0VK0 | 0.00308 s⁻¹ | 44800 M⁻¹ s⁻¹ | 44 nM | 1.77 fold vs VH0VK0 | 0.0026 s⁻¹ | 59100 M⁻¹ s⁻¹ | no binding (tested: supernatant 1:100) |
| Clone 21 (VH2Vκ5), humanised variant of clone #28, human IgG1 (antibody, V domains shown, also called VH2VK5) VH: QSLQESGPGLVKPSETLSLTCTVSGFSLNNYDMSWVRQAPGKGLEWIGTVSTTYRRYYASWAKGRFTISKTSSTTVDLQMTSLTAEDTATYFCAASGIWGRGTLVTVSS VL: DIQMTQSPSTLSASVGDRVTITCQSSQRVSSSYLAWYQQKPGQPPKRLIFLASTLESGVPSRFSGSGSGTEFTLTISSLQPDDFATYYCAGTYTGSIWAFGGGTKVEIK |  |  |  |  |  | 136 nM | 3 fold vs VH0VK0 | 0.00523 s⁻¹ | 38500 M⁻¹ s⁻¹ |  |  |  |  | no binding (tested: supernatant 1:100) |
| Clone #28 VH0VK0 chimeric human IgG1 (rabbit VH and VK of Clone 1) (antibody, V domains shown, also called VH0Vκ0; #28 VH0κ0) VH: QSLEESGGGLVKPGGTLTLTCTVSGFSLNNYDMSWVRQAPGKGLEWIGTVSTTYRRYYASWAKGRFTISKTSSTTVDLKMTSLTTEDTATYFCAASGIWGPGTLVTVSL VL: AQVLTQTTSPVSAAVGGTVTINCQSSQRVYSNYLAWYQQKPGQPPKRLIFLASTLESGVPSRFSGSGSGTQFTLTISDLECDDAATYYCAGTYTGSIWAFGGGTEVVVK |  |  |  |  |  | 45.3 nM | 1 fold vs VH0VK0 | 0.00342 s⁻¹ | 75400 M⁻¹ s⁻¹ | 24.9 nM | 1 fold vs VH0VK0 | 0.00249 s⁻¹ | 99900 M⁻¹ s⁻¹ | no binding (tested: supernatant 1:100) |
